Experiments:
Assay type in all cases: in vivo, healthy Chinese men and women
[1] = Serum total insulin during clamp (radioimmunoassay); parameters: AUCTotal insulin,0-12h / AUCTotal insulin,0-24h: unit not given here; details: 0.5 IU/kg s.c., arithmetic mean ± SD; for AUCTotal insulin,0-12h / AUCTotal insulin,0-24h: serum, before C-peptide correction
Method: (§1) All enrolled subjects underwent a euglycemic glucose clamp lasting for up to 24 h after a 0.5-IU/kg IGlar injection. All the participants were restrained from strenuous exercise, smoking, alcohol, or caffeinated drinks. Since a C-peptide suppression of more than 50% is widely recognized as sufficient endogenous insulin suppression, the subjects fell into two groups based on the ratio of C-peptide reduction from baseline (group A: C-peptide reduction <50%; group B: C-peptide reduction ≥50%). The data were collected from a clinical trial (NCT03555305) ([Liu et al., 2021]), which was conducted to evaluate the pharmacokinetic and pharmacodynamic equivalence of an IGlar biosimilar (LY2963016) manufactured by Eli Lilly to Lantus manufactured by Sanofi.
(§2) A 6-ml blood sample for analysis of C-peptide and total insulin levels were collected before drug administration (0.5 and 0 h before dosing) and every 0.5–3 h throughout the clamp as described before ([Liu et al., 2021]). The whole blood sample was drawn into a serum tube and gently mixed by inversion (>5 times). Then the sample was required to clot for 30–60 min at room temperature. The tube was centrifuged at 1,500–2000g for 15–20 min to separate serum. The serum was transferred without red blood cells contained, and frozen at -70 °C until shipment for analysis. The concentration of total insulin was determined by a validated radioimmunoassay method ([Kuerzel et al., 2003]; [Shen et al., 2019]) with a quantification range of 50–2000 pmol/L at WuXi AppTec Co., Ltd. in Shanghai, China. The exogenous IGlar level was calculated by subtracting the endogenous insulin based on C-peptide using Owens’s method ([Owens, 1986]). The C-peptide concentration was analyzed by a direct chemiluminescent technology in Covance Laboratory (Shanghai, China) with a quantification range of 0.07–352 ng/ml.
(§3) If a measured value of total insulin or C-peptide was below the lower limit of quantification, it would be included in statistics as half of the limit. A calculated value of IGlar below zero after C-peptide correction would be excluded from the PK statistics. The primary PK parameters included the area under the curve (AUC) of IGlar from time 0–24 h (AUCIGlar, 0–24 h) and the maximum IGlar (IGlarmax) corrected by C-peptide. Other PK parameters included AUC of IGlar from 0 to 12 h (AUCIGlar, 0–12 h) and time to IGlarmax (tIGlarmax).

[2] = Pharmacokinetics of exogenous IGlar (total insulin radioimmunoassay, C-peptide corrected by Owens's method); details: 0.5 IU/kg s.c., arithmetic mean ± SD; for AUCIGlar,0-12h / AUCIGlar,0-24h / IGlarmax: serum, C-peptide corrected
Method: as §1, §2, §3

[3] = Manual euglycemic glucose clamp, glucose infusion rate (pharmacodynamics); details: for AUCGIR,0-24h / GIRmax / tGIRmax: 0.5 IU/kg s.c., arithmetic mean ± SD; for AUCGIR,0-12h: single 0.5 IU/kg s.c. IGlar (LY2963016 or Lantus), clamp up to 24 h, target BG 0.28 mmol/L below baseline, median (interquartile range); for GIRmax after correction / AUCGIR, 0–24 h after correction: corrected using the corresponding exogenous IGlar parameter as a covariant; for AUCGIR, 0–24 h after correction: first mention
Method: as §1
At the dosing visit, an overnight fast of at least 8 h must be guaranteed prior to IGlar administration. Two catheters were placed into the antecubital vein and the hand vein, respectively, for 20% dextrose infusing and blood sampling correspondingly. The baseline of BG was defined as the mean of three BG measurements at 30, 20, and 10 min prior to the IGlar administration. A single dose (0.5 IU/kg) of Lantus or LY2963016 was subcutaneously injected into a lifted abdominal skinfold. A 0.1-ml blood sample was collected from the hand vein which was continuously heated in a warm blanket (55 ± 5 °C) at an interval of 10–20 min for the analysis of BG levels. A variable GIR was frequently adjusted and timely recorded to maintain the BG around 0.28 mmol/L below the baseline and represent the pharmacodynamic activity of IGlar, respectively.
The BG levels were immediately determined in whole blood at the bedside by a glucose analyzer (Biosen C_line, EKF Diagnostics, Barleben, Germany) with the glucose oxidase method. The measuring range of this method was 0.5–50 mmol/L with a high precision of 1.5%. The clamp would end if no exogenous glucose infusion was required for at least 0.5 h.
Individual GIR values were smoothed by a locally weighted scatterplot smoothing technique. The maximum GIR (GIRmax) and the total amount of glucose infused throughout the clamp (AUCGIR, 0–24 h) were defined as primary PD parameters. Secondary PD parameters included time to GIRmax (tGIRmax) and AUC of GIR from 0 to 12 h (AUCGIR, 0–12 h).

[4] = system: endogenous insulin secretion; test: Serum C-peptide during clamp (endogenous insulin suppression, direct chemiluminescence); details: arithmetic mean ± SD; for Mean postdose C-peptide: after 0.5 IU/kg s.c. IGlar; for C-peptide reduction: postdose versus baseline
Method: as §1, §2, §3

[5] = group A (C-peptide reduction <50%), N = 52
[6] = group B (C-peptide reduction >=50%), N = 26

Question: For insulin glargine [IGlar], which Maximum total insulin [1, 5] is on record?
Answer: 151.8 ± 42.0 pmol/L

Question: What about the “Time of maximum total insulin” value [1, 5] of the same substance?
Answer: 10.9 ± 5.55 h

Question: What about the “AUCTotal insulin,0-12h” value [1, 5] of the same substance?
Answer: 1,444 ± 398

Question: And the “AUCTotal insulin,0-24h” value [1, 5]?
Answer: 2,853 ± 713

Question: What about the Maximum total insulin [1, 6] of the same substance?
Answer: 162.1 ± 41.9 pmol/L

Question: And the “Time of maximum total insulin” value [1, 6]?
Answer: 10.8 ± 3.77 h

Question: What about the “AUCTotal insulin,0-12h” value [1, 6] of the same substance?
Answer: 1,510 ± 368

Question: What about the “AUCTotal insulin,0-24h” value [1, 6] of the same substance?
Answer: 2,958 ± 626

Question: And the tIGlarmax [2, 5]?
Answer: 11.7 ± 3.97 h

Question: What about the “AUCIGlar,0-12h” value [2, 5] of the same substance?
Answer: 1,099 ± 342 pmol/L×h

Question: And the “AUCIGlar,0-24h” value [2, 5]?
Answer: 2,194 ± 597 pmol/L×h

Question: What about the IGlarmax [2, 5] of the same substance?
Answer: 122.7 ± 37.7 pmol/L

Question: And the tIGlarmax [2, 6]?
Answer: 11.6 ± 2.66 h

Question: And the “AUCIGlar,0-12h” value [2, 6]?
Answer: 1,295 ± 360 pmol/L×h

Question: And the “AUCIGlar,0-24h” value [2, 6]?
Answer: 2,534 ± 597 pmol/L×h

Question: What about the IGlarmax [2, 6] of the same substance?
Answer: 147.7 ± 42.5 pmol/L

Question: What about the “AUCGIR,0-24h” value [3, 5] of the same substance?
Answer: 2,415 ± 953 mg/kg

Question: What about the GIRmax [3, 5] of the same substance?
Answer: 2.82 ± 1.06 mg/kg/min

Question: And the tGIRmax [3, 5]?
Answer: 666 ± 202 min

Question: What about the “AUCGIR,0-12h” value [3, 5] of the same substance?
Answer: 989 (642) mg/kg

Question: And the GIRmax after correction ([3]; group A)?
Answer: 2.96 mg/kg/min

Question: What about the “AUCGIR, 0–24 h after correction” value ([3]; group A) of the same substance?
Answer: 2,513 mg/kg

Question: And the “AUCGIR,0-24h” value [3, 6]?
Answer: 2,891 ± 908 mg/kg

Question: And the GIRmax [3, 6]?
Answer: 3.36 ± 1.07 mg/kg/min

Question: What about the tGIRmax [3, 6] of the same substance?
Answer: 678 ± 180 min

Question: What about the “AUCGIR,0-12h” value [3, 6] of the same substance?
Answer: 1,320 (615) mg/kg

Question: And the GIRmax after correction ([3]; group B)?
Answer: 3.09 mg/kg/min

Question: What about the “AUCGIR, 0–24 h after correction” value ([3]; group B) of the same substance?
Answer: 2,697 mg/kg

Question: What about the “Mean postdose C-peptide” value [4, 5] of the same substance?
Answer: 201 ± 74 pmol/L

Question: What about the C-peptide reduction ([4]; group A (defined by C-peptide reduction <50%), N = 52) of the same substance?
Answer: 39.5 ± 6.7%

Question: And the “Mean postdose C-peptide” value [4, 6]?
Answer: 134 ± 50 pmol/L

Question: And the C-peptide reduction ([4]; group B (defined by C-peptide reduction >=50%), N = 26)?
Answer: 57.4 ± 5.5%
